The labels stand for the following.
B1: peptide 13 (peptide)
peptide: Ac-K(Biotin)AA[Phe(4-tBu)][pT][Tic][Bta]Q-NH2
SMILES: CC(=O)N[C@@H](CCCCNC(=O)CCCC[C@@H]1SC[C@@H]2NC(=O)N[C@@H]21)C(=O)N[C@@H](C)C(=O)N[C@@H](C)C(=O)N[C@@H](Cc1ccc(C(C)(C)C)cc1)C(=O)N[C@H](C(=O)N1Cc2ccccc2C[C@H]1C(=O)N[C@@H](Cc1csc2ccccc12)C(=O)N[C@@H](CCC(N)=O)C(N)=O)[C@@H](C)OP(=O)(O)O
B2: peptide 11 (peptide)
peptide: Ac-K(Biotin)AA[Cha][pT][NMeA][2Nal]Q-NH2
B3: peptide 10 (peptide)
peptide: Ac-K(Biotin)AA[2Thi][pT][NMeA][2Nal]Q-NH2
SMILES: CC(=O)N[C@@H](CCCCNC(=O)CCCC[C@@H]1SC[C@@H]2NC(=O)N[C@@H]21)C(=O)N[C@@H](C)C(=O)N[C@@H](C)C(=O)N[C@@H](Cc1cccs1)C(=O)N[C@H](C(=O)N(C)[C@@H](C)C(=O)N[C@@H](Cc1ccc2ccccc2c1)C(=O)N[C@@H](CCC(N)=O)C(N)=O)[C@@H](C)OP(=O)(O)O
B4: peptide 7 (peptide)
peptide: Ac-K(Biotin)AA[2Nal][pT]P[Tle]Q-NH2
B5: peptide 5 (peptide)
peptide: Ac-K(Biotin)AA[Bip][pT]P[Bta]Q-NH2
B6: peptide 1 (peptide)
peptide: Ac-K(Biotin)AA[Phe(4-tBu)][pT]P[2Nal]Q-NH2
SMILES: CC(=O)N[C@@H](CCCCNC(=O)CCCC[C@@H]1SC[C@@H]2NC(=O)N[C@@H]21)C(=O)N[C@@H](C)C(=O)N[C@@H](C)C(=O)N[C@@H](Cc1ccc(C(C)(C)C)cc1)C(=O)N[C@H](C(=O)N1CCC[C@H]1C(=O)N[C@@H](Cc1ccc2ccccc2c1)C(=O)N[C@@H](CCC(N)=O)C(N)=O)[C@@H](C)OP(=O)(O)O
B7: peptide 6 (peptide)
peptide: Ac-K(Biotin)AA[Bip][pT]P[2Nal]Q-NH2
B8: peptide 3 (peptide)
peptide: Ac-K(Biotin)AA[Bta][pT]P[Cha]Q-NH2
B9: peptide 14 (peptide)
peptide: Ac-K(Biotin)AA[Cha][pT][Tic][2Nal]Q-NH2
SMILES: CC(=O)N[C@@H](CCCCNC(=O)CCCC[C@@H]1SC[C@@H]2NC(=O)N[C@@H]21)C(=O)N[C@@H](C)C(=O)N[C@@H](C)C(=O)N[C@@H](CC1CCCCC1)C(=O)N[C@H](C(=O)N1Cc2ccccc2C[C@H]1C(=O)N[C@@H](Cc1ccc2ccccc2c1)C(=O)N[C@@H](CCC(N)=O)C(N)=O)[C@@H](C)OP(=O)(O)O
B10: peptide 2 (peptide)
peptide: Ac-K(Biotin)AA[2Thi][pT]P[Bip]Q-NH2
B11: peptide 9 (peptide)
peptide: Ac-K(Biotin)AA[Phe(4-tBu)][pT][NMeA][2Nal]Q-NH2
B12: peptide 8 (peptide)
peptide: Ac-K(Biotin)AA[2Nal][pT]P[Cha]Q-NH2
B13: peptide 12 (peptide)
peptide: Ac-K(Biotin)AAF[pT][NMeA][Bta]Q-NH2
SMILES: CC(=O)N[C@@H](CCCCNC(=O)CCCC[C@@H]1SC[C@@H]2NC(=O)N[C@@H]21)C(=O)N[C@@H](C)C(=O)N[C@@H](C)C(=O)N[C@@H](Cc1ccccc1)C(=O)N[C@H](C(=O)N(C)[C@@H](C)C(=O)N[C@@H](Cc1csc2ccccc12)C(=O)N[C@@H](CCC(N)=O)C(N)=O)[C@@H](C)OP(=O)(O)O

Square brackets hold non-standard residues; d marks the D form. Peptide text beside a SMILES is read from it. * marks the point of attachment. Biotin = O=C1N[C@H]2[C@H](CS[C@H]2CCCCC(=O)*)N1; Phe(4-tBu) = CC(C)(C)c1ccc(C[C@H](N)C(=O)O)cc1; Bip = N[C@@H](Cc1ccc(-c2ccccc2)cc1)C(=O)O; pT = C[C@@H](OP(=O)(O)O)[C@H](N)C(=O)O; 2Nal = N[C@@H](Cc1ccc2ccccc2c1)C(=O)O; Bta = N[C@@H](Cc1csc2ccccc12)C(=O)O; Tic = O=C(O)[C@@H]1Cc2ccccc2CN1; 2Thi = N[C@@H](Cc1cccs1)C(=O)O; Cha = N[C@@H](CC1CCCCC1)C(=O)O; Tle = CC(C)(C)[C@H](N)C(=O)O; NMeA = CN[C@@H](C)C(=O)O

T1 sequence (Q13526 whole entry): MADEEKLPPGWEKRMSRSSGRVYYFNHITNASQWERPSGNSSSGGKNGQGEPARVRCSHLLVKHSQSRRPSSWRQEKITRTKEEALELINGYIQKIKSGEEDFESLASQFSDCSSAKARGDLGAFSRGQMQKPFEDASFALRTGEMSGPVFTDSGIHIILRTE

The first experiment concerns the target T1, hPin1 (Homo sapiens, UniProt Q13526).
T1 construct: The protease free assay ensures reliable measurement of IC50 values for the full-length hPin1
Description: Protease free PPIase assay, hPin1. As to conditions: blockade of PPIase activity of full-length hPin1, protease free assay, 10° C.; read-out: IC50. The format is biochemical. The protocol: Protein concentrations were determined using the extinction coefficient ε280=21030 M^−1 cm^−1 for hPin1, ε280=6979 M^−1 cm^−1 for the hPin1 PPIase domain, ε280=21030 M^−1 cm^−1 for XlPin1, ε280=8250 M^−1 cm^−1 for hPar14 and ε280=8250 M^−1 cm^−1 for hCyp18. Extinction coefficients were calculated using the program ProtParam Tool at ExPASy (SIB, Switzerland). All measurements were done at 10° C. in 35 mM Hepes buffer (pH 7.8).
The determination of the kinetic constants of the cis/trans isomerization within the protease-free system was performed using fluorescence based measurements (Garcia-Echeverria et al., 1993, Zhang et al., 2002) on a Hitachi F-3010 fluorescence spectrophotometer with H-Abz-Ala-Glu-Pro-Phe-NH-Np (SEQ ID NO: 2) as substrate. The substrate stock solution was 12 mM in anhydrous trifluoroethanol/0.55 M LiCl. Measurements were initiated by addition of the substrate (final concentration 10 μM) to a pre-incubated (15 min) mixture of 8.8 nM hPin1 or 7.1 nM XlPin1 and respective inhibitory peptide of desired concentrations. The excitation wavelength was 320 nm (spectral bandwidth 3 nm) and emission was detected at 420 nm (spectral bandwidth 10 nm).
Data analysis was performed by single-exponential nonlinear regression using the SigmaPlot Scientific Graphing System Version 5.00 (Jandel Corp.). The apparent first order rate constant kobs was computed by nonlinear regression of the progress curve obtained for the respective measurement. The rate constant k0 was determined in the absence of Pin1. The first order rate constants kenz was calculated from the equation kenz=kobs−k0. IC50 and Ki values were determined by fitting the first order rate constants kenz against the concentration of the inhibitory peptide by nonlinear regression according to Schutkowski et al., 1995 or a model for tight binding inhibitors (Morrison, 1969).
The protease free assay ensures reliable measurement of IC50 values for the full-length hPin1.
In general, IC50 refers to the concentration at which inhibition is half-maximal. For the molecule `CC(=O)N[C@@H](CCCCNC(=O)CCCC[C@@H]1SC[C@@H]2NC(=O)N[C@@H]21)C(=O)N[C@@H](C)C(=O)N[C@@H](C)C(=O)N[C@@H](Cc1csc2ccccc12)C(=O)N[C@H](C(=O)N1CCC[C@H]1C(=O)N[C@@H](Cc1ccc2ccccc2c1)C(=O)N[C@@H](CCC(N)=O)C(N)=O)[C@@H](C)OP(=O)(O)O` [Peptide 4] (Ac-K(Biotin)AA[Bta][pT]P[2Nal]Q-NH2), the IC50 came out at 20 µM.
For the molecule `CC(=O)N[C@@H](CCCCNC(=O)CCCC[C@@H]1SC[C@@H]2NC(=O)N[C@@H]21)C(=O)N[C@@H](C)C(=O)N[C@@H](C)C(=O)N[C@@H](Cc1ccc(-c2ccccc2)cc1)C(=O)N[C@H](C(=O)N1CCC[C@H]1C(=O)N[C@@H](Cc1csc2ccccc12)C(=O)N[C@@H](CCC(N)=O)C(N)=O)[C@@H](C)OP(=O)(O)O` [Peptide 5] (Ac-K(Biotin)AA[Bip][pT]P[Bta]Q-NH2), the IC50 stood at 15 µM.
On the same count and under the same terms, under `CC(=O)N[C@@H](CCCCNC(=O)CCCC[C@@H]1SC[C@@H]2NC(=O)N[C@@H]21)C(=O)N[C@@H](C)C(=O)N[C@@H](C)C(=O)N[C@@H](Cc1ccc2ccccc2c1)C(=O)N[C@H](C(=O)N1CCC[C@H]1C(=O)N[C@H](C(=O)N[C@@H](CCC(N)=O)C(N)=O)C(C)(C)C)[C@@H](C)OP(=O)(O)O` [Peptide 7] (Ac-K(Biotin)AA[2Nal][pT]P[Tle]Q-NH2) stands over 50 µM; under `CC(=O)N[C@@H](CCCCNC(=O)CCCC[C@@H]1SC[C@@H]2NC(=O)N[C@@H]21)C(=O)N[C@@H](C)C(=O)N[C@@H](C)C(=O)N[C@@H](Cc1ccc2ccccc2c1)C(=O)N[C@H](C(=O)N1CCC[C@H]1C(=O)N[C@@H](CC1CCCCC1)C(=O)N[C@@H](CCC(N)=O)C(N)=O)[C@@H](C)OP(=O)(O)O` [Peptide 8] (Ac-K(Biotin)AA[2Nal][pT]P[Cha]Q-NH2), over 50 µM; under `CC(=O)N[C@@H](CCCCNC(=O)CCCC[C@@H]1SC[C@@H]2NC(=O)N[C@@H]21)C(=O)N[C@@H](C)C(=O)N[C@@H](C)C(=O)N[C@@H](Cc1cccs1)C(=O)N[C@H](C(=O)N(C)[C@@H](C)C(=O)N[C@@H](Cc1ccc2ccccc2c1)C(=O)N[C@@H](CCC(N)=O)C(N)=O)[C@@H](C)OP(=O)(O)O` [Peptide 10] (Ac-K(Biotin)AA[2Thi][pT][NMeA][2Nal]Q-NH2), 15 µM.
For `CC(=O)N[C@@H](CCCCNC(=O)CCCC[C@@H]1SC[C@@H]2NC(=O)N[C@@H]21)C(=O)N[C@@H](C)C(=O)N[C@@H](C)C(=O)N[C@@H](Cc1ccccc1)C(=O)N[C@H](C(=O)N(C)[C@@H](C)C(=O)N[C@@H](Cc1csc2ccccc12)C(=O)N[C@@H](CCC(N)=O)C(N)=O)[C@@H](C)OP(=O)(O)O` [Peptide 12] (Ac-K(Biotin)AAF[pT][NMeA][Bta]Q-NH2), the IC50 is 20 µM.

Staying with this experiment, now noted: compared with peptide 15.
Regarding `CC(=O)N[C@@H](CCCCNC(=O)CCCC[C@@H]1SC[C@@H]2NC(=O)N[C@@H]21)C(=O)N[C@@H](C)C(=O)N[C@@H](C)C(=O)N[C@@H](Cc1csc2ccccc12)C(=O)N[C@H](C(=O)N1CCC[C@H]1C(=O)N[C@@H](Cc1ccc2ccccc2c1)C(=O)N[C@@H](CCC(N)=O)C(N)=O)[C@@H](C)OP(=O)(O)O` [Peptide 4] (Ac-K(Biotin)AA[Bta][pT]P[2Nal]Q-NH2), the “fold decrease of inhibition, prolyl residue at Yaa versus peptide 15” value is reported as 100 fold.

The target in another experiment is full-length hPin1 (human, UniProt Q13526 1-163). Put plainly: cell-based or functional assay.
full-length hPin1, sequence (Q13526 whole entry): as above
Settings: not given
On to B1, for which the “IC50(µM), blockade of the PPIase activity of hPin1, protease free PPIase assay” value (shortened to “IC50(µM), blockade … protease free PPIase assay”) turned out to be 8 µM.
Regarding B2, the “IC50(µM), blockade … protease free PPIase assay” value was 7 µM.
As for B3, the “IC50(µM), blockade … protease free PPIase assay” value was determined as 15 µM.
For the molecule B4, the “IC50(µM), blockade … protease free PPIase assay” value is over 50 µM.
For the molecule B5, the “IC50(µM), blockade … protease free PPIase assay” value came out at 15 µM.
With B6, the “IC50(µM), blockade … protease free PPIase assay” value turned out to be 30 µM.
The same measure, in the same setting: the figure for B7 is 18 µM.
For the molecule B8, the “IC50(µM), blockade … protease free PPIase assay” value is over 50 µM.
Take B9: the “IC50(µM), blockade … protease free PPIase assay” value stood at 25 µM.
In the case of B10, the “IC50(µM), blockade … protease free PPIase assay” value came to 22 µM.
Turning to B11, the “IC50(µM), blockade … protease free PPIase assay” value was determined as 10 µM.
As for B12, the “IC50(µM), blockade … protease free PPIase assay” value is over 50 µM.
Take B13: the “IC50(µM), blockade … protease free PPIase assay” value was 20 µM.

Source of the values: patent publication US8258099B2, “Pin1-modulating compounds and methods of use thereof” (Max-Planck-Gesellschaft zur Foerderung der Wissenschaften …, priority 2004, dated 2012).
